Bridges are numbered along the chain shown (N, C = ends). Where no end group is shown, it is not given here. [ ]: non-standard residue; d: D form. Nle = CCCC[C@H](N)C(=O)O; Dap = NC[C@H](N)C(=O)O
Assays:
Experiment in all cases: cell-based or functional assay
[1] = biological target: T1, mouse melanocortin-1 receptor (mouse, UniProt Q01727 1-315)
[2] = biological target: mouse melanocortin-5 receptor (mouse, UniProt P41149 1-325)
[3] = biological target: T2, mouse melanocortin-3 receptor (mouse, UniProt P33033 1-323)
T2 sequence (P33033 whole entry): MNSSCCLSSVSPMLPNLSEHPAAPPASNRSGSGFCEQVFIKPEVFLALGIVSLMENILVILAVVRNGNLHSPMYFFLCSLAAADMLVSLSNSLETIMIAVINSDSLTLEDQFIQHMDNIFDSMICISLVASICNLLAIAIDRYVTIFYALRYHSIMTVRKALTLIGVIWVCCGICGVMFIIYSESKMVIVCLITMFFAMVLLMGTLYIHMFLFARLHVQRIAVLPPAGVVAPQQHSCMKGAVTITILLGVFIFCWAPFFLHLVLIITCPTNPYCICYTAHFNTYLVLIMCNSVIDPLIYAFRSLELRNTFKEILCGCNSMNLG

[4] = biological target: mouse melanocortin-4 receptor (mouse, UniProt P56450 1-332)
Chain of mouse melanocortin-4 receptor (P56450 whole entry): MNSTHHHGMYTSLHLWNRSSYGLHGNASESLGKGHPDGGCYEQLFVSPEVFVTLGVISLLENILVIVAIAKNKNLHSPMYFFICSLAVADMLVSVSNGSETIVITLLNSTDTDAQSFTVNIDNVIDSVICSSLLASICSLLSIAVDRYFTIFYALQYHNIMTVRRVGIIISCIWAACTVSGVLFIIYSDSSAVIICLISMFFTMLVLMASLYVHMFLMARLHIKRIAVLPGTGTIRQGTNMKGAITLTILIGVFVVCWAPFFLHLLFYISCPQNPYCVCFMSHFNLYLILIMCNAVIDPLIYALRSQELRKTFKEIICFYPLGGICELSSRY

[5] = biological target: T1, mouse melanocortin-1 receptor; remark: listed apart in the source
[6] = biological target: T2, mouse melanocortin-3 receptor; remark: listed apart in the source

T1 sequence (Q01727 whole entry): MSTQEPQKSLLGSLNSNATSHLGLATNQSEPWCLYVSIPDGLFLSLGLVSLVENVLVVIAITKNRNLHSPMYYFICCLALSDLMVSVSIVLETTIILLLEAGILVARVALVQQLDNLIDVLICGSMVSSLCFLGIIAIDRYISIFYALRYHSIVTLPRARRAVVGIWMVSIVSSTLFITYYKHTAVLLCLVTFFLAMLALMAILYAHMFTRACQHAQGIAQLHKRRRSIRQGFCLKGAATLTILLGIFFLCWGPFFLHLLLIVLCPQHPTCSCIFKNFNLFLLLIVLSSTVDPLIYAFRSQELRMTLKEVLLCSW
Chain of mouse melanocortin-5 receptor (P41149 whole entry): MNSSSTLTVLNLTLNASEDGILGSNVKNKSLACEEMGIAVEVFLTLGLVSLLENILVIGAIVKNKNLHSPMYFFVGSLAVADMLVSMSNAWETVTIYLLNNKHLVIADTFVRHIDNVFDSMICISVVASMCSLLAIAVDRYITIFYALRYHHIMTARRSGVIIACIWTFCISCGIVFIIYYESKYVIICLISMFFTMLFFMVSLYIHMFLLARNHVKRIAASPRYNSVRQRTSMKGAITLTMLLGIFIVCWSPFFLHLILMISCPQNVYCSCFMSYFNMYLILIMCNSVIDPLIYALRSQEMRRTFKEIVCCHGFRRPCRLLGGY

Row | Binder | EC50 (agonist) [2] [µM] | EC50 (agonist) [3] [µM] | EC50 (agonist) [4] [µM] | EC50 (agonist) [1] [µM] | other results
1 | Ac-SYS[Nle]EFFRGKPV-NH2 (SMILES CCCC[C@H](NC(=O)[C@H](CO)NC(=O)[C@H](Cc1ccc(O)cc1)NC(=O)[C@H](CO)NC(C)=O)C(=O)N[C@@H](CCC(=O)O)C(=O)N[C@@H](Cc1ccccc1)C(=O)N[C@@H](Cc1ccccc1)C(=O)N[C@@H](CCCNC(=N)N)C(=O)NCC(=O)N[C@@H](CCCCN)C(=O)N1CCC[C@H]1C(=O)N[C@H](C(N)=O)C(C)C) [SEQ ID NO:13 (Ac-Ser-Tyr-Ser-Nle-Glu-Phe-Phe-Arg-Gly-Lys-Pro-Val)] | > 100 | > 100 | > 100 | – | EC50 (agonist; Partial agonist) [1]: 19.9 µM
2 | YDHRFFNAF[Dap]Y-NH2 (lactam 2-10; N-terminus assumed; SMILES C[C@@H]1NC(=O)[C@H](CC(N)=O)NC(=O)[C@H](Cc2ccccc2)NC(=O)[C@H](Cc2ccccc2)NC(=O)[C@H](CCCNC(=N)N)NC(=O)[C@H](Cc2c[nH]cn2)NC(=O)[C@@H](NC(=O)[C@@H](N)Cc2ccc(O)cc2)CC(=O)NC[C@@H](C(=O)N[C@@H](Cc2ccc(O)cc2)C(N)=O)NC(=O)[C@H](Cc2ccccc2)NC1=O) [SEQ ID NO:8 (Tyr-c[Asp-His-Arg-Phe-Phe-Asn-Ala-Phe-Dpr]-Tyr)] | 100 | – | > 100 | 13.3 | fold decrease in agonist potency, fold change against SEQ ID NO:3 [5]: 8 fold
3 | YDHXRXNAFXY (Asp-Dpr side chain lactam bridge; Dpr; DPhe; Tic; C-terminal amide (amide resin)) [SEQ ID NO:42 (Tyr-c[Asp-His-DPhe-Arg-Tic-Asn-Ala-Phe-Dpr]-Tyr)] | 0.0427 | 3.4 | 0.26 | 0.0216 | –
4 | Ac-SYS[Nle]EHAAAGKPV-NH2 (SMILES CCCC[C@H](NC(=O)[C@H](CO)NC(=O)[C@H](Cc1ccc(O)cc1)NC(=O)[C@H](CO)NC(C)=O)C(=O)N[C@@H](CCC(=O)O)C(=O)N[C@@H](Cc1c[nH]cn1)C(=O)N[C@@H](C)C(=O)N[C@@H](C)C(=O)N[C@@H](C)C(=O)NCC(=O)N[C@@H](CCCCN)C(=O)N1CCC[C@H]1C(=O)N[C@H](C(N)=O)C(C)C) [SEQ ID NO:12 (Ac-Ser-Tyr-Ser-Nle-Glu-His-Ala-Ala-Ala-Gly-Lys-Pro-Val)] | > 100 | > 100 | > 100 | > 100 | –
5 | YDAAANAF[Dap]Y-NH2 (lactam 2-9; N-terminus assumed; SMILES C[C@@H]1NC(=O)[C@H](C)NC(=O)[C@@H](NC(=O)[C@@H](N)Cc2ccc(O)cc2)CC(=O)NC[C@@H](C(=O)N[C@@H](Cc2ccc(O)cc2)C(N)=O)NC(=O)[C@H](Cc2ccccc2)NC(=O)[C@H](C)NC(=O)[C@H](CC(N)=O)NC(=O)[C@H](C)NC1=O) [SEQ ID NO:2 (Tyr-c[Asp-Ala-Ala-Ala-Asn-Ala-Phe-Dpr]-Tyr)] | > 100 | > 100 | > 100 | > 100 | –
6 | Ac-SYS[Nle]EHR[dF]FGKPV-NH2 (SMILES CCCC[C@H](NC(=O)[C@H](CO)NC(=O)[C@H](Cc1ccc(O)cc1)NC(=O)[C@H](CO)NC(C)=O)C(=O)N[C@@H](CCC(=O)O)C(=O)N[C@@H](Cc1c[nH]cn1)C(=O)N[C@@H](CCCNC(=N)N)C(=O)N[C@H](Cc1ccccc1)C(=O)N[C@@H](Cc1ccccc1)C(=O)NCC(=O)N[C@@H](CCCCN)C(=O)N1CCC[C@H]1C(=O)N[C@H](C(N)=O)C(C)C) [SEQ ID NO:17 (Ac-Ser-Tyr-Ser-Nle-Glu-His-Arg-DPhe-Phe-Gly-Lys-Pro-Val-NH2)] | 0.45 | 6.21 | – | 0.00728 | agonist potency, fold change against SEQ ID NO:15 [5]: 8 fold; fold decrease in agonist potency, fold change against SEQ ID NO:15 [6]: 13 fold
7 | Ac-[Nle]DHRFFK-NH2 (lactam 2-7; SMILES CCCC[C@H](NC(C)=O)C(=O)N[C@H]1CC(=O)NCCCC[C@@H](C(N)=O)NC(=O)[C@H](Cc2ccccc2)NC(=O)[C@H](Cc2ccccc2)NC(=O)[C@H](CCCNC(=N)N)NC(=O)[C@H](Cc2c[nH]cn2)NC1=O) [SEQ ID NO:20 (Ac-Nle-c[Asp-His-Arg-Phe-Phe-Lys])] | > 100 | > 100 | > 100 | – | EC50 (agonist; Partial agonist) [1]: 38.3 µM
8 | Ac-SYS[Nle]EHFFRGKPV-NH2 (SMILES CCCC[C@H](NC(=O)[C@H](CO)NC(=O)[C@H](Cc1ccc(O)cc1)NC(=O)[C@H](CO)NC(C)=O)C(=O)N[C@@H](CCC(=O)O)C(=O)N[C@@H](Cc1c[nH]cn1)C(=O)N[C@@H](Cc1ccccc1)C(=O)N[C@@H](Cc1ccccc1)C(=O)N[C@@H](CCCNC(=N)N)C(=O)NCC(=O)N[C@@H](CCCCN)C(=O)N1CCC[C@H]1C(=O)N[C@H](C(N)=O)C(C)C) [SEQ ID NO:14 (Ac-Ser-Tyr-Ser-Nle-Glu-His-Phe-Phe-Arg-Gly-Lys-Pro-Val)] | – | – | > 100 | – | EC50 (agonist; Partial agonist) [1]: 7.22 µM; EC50 (agonist; Partial agonist) [2]: 24.4 µM; EC50 (agonist; Partial agonist) [3]: 20.5 µM
9 | YDWRFNAF[Dap]Y-NH2 (lactam 2-9; N-terminus assumed; SMILES C[C@@H]1NC(=O)[C@H](CC(N)=O)NC(=O)[C@H](Cc2ccccc2)NC(=O)[C@H](CCCNC(=N)N)NC(=O)[C@H](Cc2c[nH]c3ccccc23)NC(=O)[C@@H](NC(=O)[C@@H](N)Cc2ccc(O)cc2)CC(=O)NC[C@@H](C(=O)N[C@@H](Cc2ccc(O)cc2)C(N)=O)NC(=O)[C@H](Cc2ccccc2)NC1=O) [SEQ ID NO:4 (Tyr-c[Asp-Trp-Arg-Phe-Asn-Ala-Phe-Dpr]-Tyr)] | > 100 | > 100 | – | 13.5 | EC50 (agonist; Partial agonist) [4]: 15.9 µM
10 | Ac-SYS[Nle]YDRFFNAF[Dap]YKPV-NH2 (lactam 6-13; SMILES CCCC[C@H](NC(=O)[C@H](CO)NC(=O)[C@H](Cc1ccc(O)cc1)NC(=O)[C@H](CO)NC(C)=O)C(=O)N[C@@H](Cc1ccc(O)cc1)C(=O)N[C@H]1CC(=O)NC[C@@H](C(=O)N[C@@H](Cc2ccc(O)cc2)C(=O)N[C@@H](CCCCN)C(=O)N2CCC[C@H]2C(=O)N[C@H](C(N)=O)C(C)C)NC(=O)[C@H](Cc2ccccc2)NC(=O)[C@H](C)NC(=O)[C@H](CC(N)=O)NC(=O)[C@H](Cc2ccccc2)NC(=O)[C@H](Cc2ccccc2)NC(=O)[C@H](CCCNC(=N)N)NC1=O) [SEQ ID NO:11 (Ac-Ser-Tyr-Ser-Nle-Tyr-c[Asp-Arg-Phe-Phe-Asn-Ala-Phe-Dpr]-Tyr-Lys-Pro-Val)] | > 100 | – | – | 1.96 | pA2 (antagonist) [3]: 6.2; pA2 (antagonist) [4]: 6.2
11 | Ac-[Nle]DHAAAK-NH2 (lactam 2-7; SMILES CCCC[C@H](NC(C)=O)C(=O)N[C@H]1CC(=O)NCCCC[C@@H](C(N)=O)NC(=O)[C@H](C)NC(=O)[C@H](C)NC(=O)[C@H](C)NC(=O)[C@H](Cc2c[nH]cn2)NC1=O) [SEQ ID NO:19 (Ac-Nle-c[Asp-His-Ala-Ala-Ala-Lys])] | > 100 | > 100 | > 100 | > 100 | –
12 | Ac-SYS[Nle]EHRFFGKPV-NH2 [SEQ ID NO:15 (Ac-Ser-Tyr-Ser-Nle-Glu-His-Arg-Phe-Phe-Gly-Lys-Pro-Val)] | 0.327 | 0.48 | 0.93 | 0.0599 | –

Reference: patent US7084111 (UNIVERSITY OF FLORIDA RESEARCH FOUNDATION, dated 2006)
